Test results taken from article PMC8280789.

Key:
Assay in all cases: ELISA; dose-response: host component coated (1 μg/well); rLIC13086 at rising concentrations (0–5 μM in the methods; 0–0.5 μM or 0–5 μM in the legends), 2 h at 37°C; detected with HRP-conjugated anti-His mAb; KD from a non-linear fit of the specific binding equation (GraphPad Prism)
[1] = biological target: plasma fibronectin (human)
C4b (human) = biological target: C4b (human)
laminin (human) = biological target: laminin (human)
C9 (human) = C9 (human) (UniProt P02748)
C8 (human) = biological target: C8 (human)
plasminogen (human) = biological target: plasminogen (human)
C5b6 (human) = C5b6 (human) (UniProt P13671)
C7 (human) = C7 (human) (UniProt P10643)
fibrinogen (human) = biological target: fibrinogen (human)
C4BP (human) = biological target: C4BP (human)

UniProt P02748, sequence (P02748 22-559): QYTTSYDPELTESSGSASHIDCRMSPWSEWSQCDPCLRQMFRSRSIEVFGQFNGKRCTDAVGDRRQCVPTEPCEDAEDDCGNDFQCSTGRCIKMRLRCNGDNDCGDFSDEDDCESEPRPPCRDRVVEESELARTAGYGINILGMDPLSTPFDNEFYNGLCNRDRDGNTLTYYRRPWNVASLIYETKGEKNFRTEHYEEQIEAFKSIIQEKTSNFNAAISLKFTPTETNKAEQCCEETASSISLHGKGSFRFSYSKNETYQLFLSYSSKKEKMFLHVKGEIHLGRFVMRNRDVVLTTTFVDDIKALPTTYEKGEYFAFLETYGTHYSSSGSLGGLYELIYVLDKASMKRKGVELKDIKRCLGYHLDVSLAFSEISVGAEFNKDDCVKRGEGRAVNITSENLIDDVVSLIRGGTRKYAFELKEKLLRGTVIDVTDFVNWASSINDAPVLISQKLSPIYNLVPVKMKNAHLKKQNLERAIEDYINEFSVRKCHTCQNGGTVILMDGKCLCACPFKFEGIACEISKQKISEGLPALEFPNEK
UniProt P10643, sequence (P10643 23-843): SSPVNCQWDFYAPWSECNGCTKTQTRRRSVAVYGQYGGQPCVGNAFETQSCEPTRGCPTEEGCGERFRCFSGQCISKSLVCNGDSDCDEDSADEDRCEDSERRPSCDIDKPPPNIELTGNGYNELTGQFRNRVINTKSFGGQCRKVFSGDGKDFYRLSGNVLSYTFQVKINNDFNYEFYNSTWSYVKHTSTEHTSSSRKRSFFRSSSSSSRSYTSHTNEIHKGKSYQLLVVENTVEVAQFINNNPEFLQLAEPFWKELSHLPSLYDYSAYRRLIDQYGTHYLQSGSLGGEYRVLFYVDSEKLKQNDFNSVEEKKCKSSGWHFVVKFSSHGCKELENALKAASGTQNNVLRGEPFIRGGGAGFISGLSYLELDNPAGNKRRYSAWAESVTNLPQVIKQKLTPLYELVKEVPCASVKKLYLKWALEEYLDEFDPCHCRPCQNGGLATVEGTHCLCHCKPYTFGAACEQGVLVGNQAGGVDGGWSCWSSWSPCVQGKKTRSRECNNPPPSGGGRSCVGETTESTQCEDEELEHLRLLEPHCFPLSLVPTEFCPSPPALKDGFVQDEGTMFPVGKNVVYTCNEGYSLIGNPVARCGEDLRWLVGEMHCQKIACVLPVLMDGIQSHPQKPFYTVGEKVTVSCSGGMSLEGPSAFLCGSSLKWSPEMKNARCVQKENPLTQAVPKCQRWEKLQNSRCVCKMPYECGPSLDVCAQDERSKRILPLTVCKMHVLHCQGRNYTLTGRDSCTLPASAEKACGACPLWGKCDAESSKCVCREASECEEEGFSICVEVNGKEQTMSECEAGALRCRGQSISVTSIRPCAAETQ

**Q.** “recombinant protein LIC13086 (natural protein)” was tested. Which Kd [1] did it give?
**A.** The Kd was 5.8 nM.

**Q.** And the Kd (C4b (human))?
**A.** Its Kd is 162 nM.

**Q.** What about the Kd (laminin (human)) of the same substance?
**A.** Its Kd is 18.7 nM.

**Q.** What about the Kd (C9 (human)) of the same substance?
**A.** Its Kd is 818 nM.

**Q.** What about the Kd (C8 (human)) of the same substance?
**A.** Its Kd is 134 nM.

**Q.** What about the Kd (plasminogen (human)) of the same substance?
**A.** The Kd was 10.1 nM.

**Q.** What about the Kd (C5b6 (human)) of the same substance?
**A.** The Kd was 40.3 nM.

**Q.** And the Kd (C7 (human))?
**A.** Its Kd is 35.8 nM.

**Q.** And the Kd (fibrinogen (human))?
**A.** The Kd was 320 nM.

**Q.** And the Kd (C4BP (human))?
**A.** The Kd was 8.9 nM.
